Results as given in patent US6375945B1, “Adjuvant compositions for vaccines” (SmithKline Beecham Biologicals s.a., priority 1997, dated 2002).

B1: IFN-γ: cytokine (protein, UniProt P01579 24-161, looked up)
Interferon gamma: QDPYVKEAENLKKYFNAGHSDVADNGTLFLGILKNWKEESDRKIMQSQIVSFYFKLFKNFKDDQSIQKSVETIKEDMNVKFFNSNKKKRDDFEKLTNYSVTDLNVQRKAIHELIQVMAELSPAAKTGKRKRSQMLFRG
B2: IL-7: cytokine (protein, UniProt P13232 26-177, looked up)
Interleukin-7: DCDIEGKDGKQYESVLMVSIDQLLDSMKEIGSNCLNNEFNFFKRHICDANKEGMFLFRAARKLRQFLKMNSTGDFDLHLLKVSEGTTILLNCTGQVKGRKPAALGEAQPTKSLEENKSLKEQKKLNDLCFLKRLLQEIKTCWNKILMGTKEH
B3: IL12: murine IL12 purified from the supernatant of transfected P1HTR cells; heterodimeric cytokine (protein, UniProt P43431 23-215; P43432 23-335, looked up)
Interleukin-12 subunit alpha: RVIPVSGPARCLSQSRNLLKTTDDMVKTAREKLKHYSCTAEDIDHEDITRDQTSTLKTCLPLELHKNESCLATRETSSTTRGSCLPPQKTSLMMTLCLGSIYEDLKMYQTEFQAINAALQNHNHQQIILDKGMLVAIDELMQSLNHNGETLRQKPPVGEADPYRVKMKLCILLHAFSTRVVTINRVMGYLSSA
Interleukin-12 subunit beta: MWELEKDVYVVEVDWTPDAPGETVNLTCDTPEEDDITWTSDQRHGVIGSGKTLTITVKEFLDAGQYTCHKGGETLSHSHLLLHKKENGIWSTEILKNFKNKTFLKCEAPNYSGRFTCSWLVQRNMDLKFNIKSSSSSPDSRAVTCGMASLSAEKVTLDQRDYEKYSVSCQEDVTCPTAEETLPIELALEARQQNKYENYSTSFFIRDIIKPDPPKNLQMKPLKNSQVEVSWEYPDSWSTPHSYFSLKFFVRIQRKKEKMKETEEGCNQKGAFLVEKTSTEVQCKGGNVCVQAQDRYYNSSCSKWACVPCRVRS

Tests used:
[1] = Enhancement of the effect of the QS21/MPL adjuvant by other cytokines
P1983 cells = assay: IL12 dose curve: CTL activity in mice receiving peptide P198 + DQS21/3D-MPL + various doses of IL12; type: in vivo, DBA/2 mice; conditions: with P198 peptide and DQS21/3D-MPL
Description: DBA/2 mice were injected s.c. in the two footpads with 50 μg of P198 peptide ([…]), corresponding to the antigen expressed by the P198 TUM—clone (Sibille et al., J. Exp. Med., 1990: 172, 35-45), mixed with the DQS21/3D-MPL adjuvant (adjuvant) 100 μl final. […] This murine IL12 was purified from the supernatant of transfected P1HTR cells as described in Gajewski et al. (J. Immunol. 1995, 154: 5637-5648). […] On day 16, the mice were bled and stimulation of blood lymphocytes was performed by mixing 3×10^5 Ficoll purified lymphocytes with […] stimulating cells (100 Gy) and 2×10^6 irradiated normal syngeneic spleen cells (30 Gy) as feeder cells. The stimulating cells were P1983 cells, an azaguanine-resistant variant derived from the P198 TUM-clone. The cells were incubated in 48-well plates in a final volume of 0,8 ml MLTC medium described in Warnier et al. (Int. J. Cancer, 1996, 67, 303-310). Seven days later, CTL activity was measured in a standard chromium-release assay using 1,000 5^1Cr-labelled targets. […] Specific lytic units were calculated by subtracting the values obtained with the negative targets (usually less than 0,3 LU) from those obtained with the positive target. Mice were scored as ± when the LU detected were comprised between 0,1 and 1; + when LU were comprised between 1 and 10; and ++ above 10 LU. […]

[2] = mouse, in vivo

Molecule	enhancement of the effect of the QS21/MPL adjuvant [1]	effect of IL12 on CTL activity (P1983 cells; IL12 dose/mouse/day 10 ng (100U))	effect of IL12 on CTL activity (P1983 cells; IL12 only 30 ng (so in the source))	systemic toxicity [2]
GM-CSF: cytokine	unable to enhance			
IL-6: cytokine	unable to enhance			
B1	unable to enhance			
B2	unable to enhance			
B3		nearly fully maintained	disappeared	largely reduced but not totally absent
